Where no end group is shown, it is not given here.

The target in this experiment is T1, mouse PD-L1 (mouse, UniProt Q9EP73 19-290).
T1 construct: whole, on cells; Endogenous protein of mouse tumor cell lines; also called PD-L1 on mouse pancreatic cancer KC, Panc02 and KPC cells
Nature of the experiment: peptide-IONP conjugates on KC and Panc02 cells, Prussian blue staining.

T1 sequence (Q9EP73 19-290): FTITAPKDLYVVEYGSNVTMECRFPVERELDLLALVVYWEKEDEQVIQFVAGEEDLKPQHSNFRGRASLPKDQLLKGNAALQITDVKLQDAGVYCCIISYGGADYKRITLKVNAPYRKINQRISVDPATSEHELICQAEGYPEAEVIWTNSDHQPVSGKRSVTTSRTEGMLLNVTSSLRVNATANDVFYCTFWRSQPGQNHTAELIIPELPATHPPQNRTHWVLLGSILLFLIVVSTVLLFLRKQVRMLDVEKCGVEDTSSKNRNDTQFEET

B1: PD-1 (Lin) peptide (peptide)
peptide: NWNRLSPSNQTEKQAACGAISLHPKAKIEESPGHHHH
modifications: also: FITC label in competition assay, place not given here, bound via His tag to NTA-Cu on IONPs or NTA-Ni beads
notes: Tested as FITC-labelled free peptide, as IONP conjugate and on NTA-Ni beads; also called PD-1 like peptide; PD-1 Lin-IONP (when conjugated to iron oxide nanoparticles)
Take B1: the binding result is given as “binds”.

B2: PD-1 (Y) peptide (peptide)
peptide: NWNRLSPSNQTEKQAAPHHHHCGAISLHPKAKIEE
modifications: not fully specified; also: FITC label in competition assay, place not given here
notes: also called PDIY; PD-1 like peptide
B2: the binding result is “binds”.

The values above are taken from patent publication US20240400641A1 (EMORY UNIVERSITY, published 2024).
